Experiment [1] deals with RGH2^+-Exo70 domain (residues 1033-1637), purified from E. coli (barley (Hordeum vulgare)). Kind of experiment: ITC; MicroCal PEAQ-ITC; […]; 25 °C; 20 mM HEPES pH 7.5, 150 mM NaCl, 5% glycerol; […]. For orientation: Isothermal titration calorimetry measures the heat released or taken up as one component is titrated into another.
In experiment [2] the target is RGH2-Exo70 domain (residues 1033-1637), purified from E. coli (barley (Hordeum vulgare)). The description is as above.

We go through one substance from publication PMC13291817.

The Kd is the constant that tells how readily two partners part at equilibrium. Higher therefore signals a looser complex. As for “AVR-Pii^Rb, purified from E. coli (natural protein)”, the dissociation constant (Kd) turned out to be 3.12 µM in experiment [1] and 15 µM in experiment [2].
